Results as given in paper doi:10.1101/671792.

Target: polymerization-deficient p62 PB1 domain D69A/D73A (human) (UniProt Q13501)
Experiment: ITC

B1: MEKK3 PB1 domain, residues 43-127 (ITC) (domain or fragment)
chain: SDVRIKFEHNGERRIIAFSRPVKYEDVEHKVTTVFGQPLDLHYMNNELSILLKNQDDLDKAIDILDRSSSMKSLRILLLSQDRNH
B1 was tested, and the Kd was 26.8 nM.
